The text below walks through data of patent publication US20190381183A1 (TEXAS A AND M UNIVERSITY SYSTEM, published 2019).

The target of test [1] is T1, recombinant human HER2 (extracellular domain)-Fc fusion protein (human, UniProt P04626 23-652).
T1 construct: extracellular domain; Bought reagent; also called HER2-ECD-Fc; HER-extracellular domain (ECD)-Fc fusion; not shown: immunoglobulin Fc fragment of the bought fusion protein
The test can be described thus: SPR (BIAcore T200), antibody injected over immobilized HER2-ECD-Fc, pH 5.8, apparent KD (FIG. 4B); pH 5.8. For orientation: Surface plasmon resonance follows binding to a sensor surface in real time, without labels.

Test [2] deals with T1, recombinant human HER2 (extracellular …). The test can be described thus: SPR, antibody injected over immobilized HER2-ECD-Fc, apparent equilibrium dissociation constant, pH 5.8.
Test [3] shares this target. The test can be described thus: SPR, antibody injected over immobilized HER2-ECD-Fc, apparent equilibrium dissociation constant, pH 6.5.
Test [4] shares this target. Kind of test: SPR, antibody injected over immobilized HER2-ECD-Fc, apparent equilibrium dissociation constant, pH 7.0.
For test [5] the target is unchanged. The test can be described thus: SPR, antibody injected over immobilized HER2-ECD-Fc, apparent equilibrium dissociation constant, pH 7.4.

Some results are limits rather than exact numbers.

B1: YS mutant of pertuzumab (Tyr55 to histidine in the light chain variable domain and Ser103 to histidine in the heavy chain variable domain) (antibody, human IgG1, V domains shown)
VH: QVQLQESGGGLVQPGGSLRLSCAASGFTFTDYTMDWVRQAPGKGLEWVADVNPNSGGSIYNQRFKGRFTLSVDRSKNTLYLQMNSLRAEDTAVYYCARNLGPHFYFDYWGQGTLVTVSS
VL: DIELTQSPSSLSASVGDRVTITCKASQDVSIGVAWYQQKPGKAPKLLIYSASYRHTGVPSRFSGSGSGTDFTLTISSLQPEDFATYYCQQYYIYPYTFGQGTKLEIKR
notes: Tested without conjugated drug in the SPR assay; also called YS variant of pertuzumab
For the molecule B1, the Kd in test [1] is over 1500 nM; in test [2] it was 1630 nM; in test [3], 67.9 nM; in test [4], 22.1 nM; in test [5] it was 6.3 nM.
